Laboratory results taken from US20200317768A1 (published 2020).

T1: cynomolgus monkey FcγRIIIaS extracellular domain, C-terminal His-tag (cynomolgus monkey, UniProt Q8SPW2 21-206 at identity 1.00))
T1 construct: also called cyno FcγRIIIaS; cynoFcγRIIIaS
T1 chain: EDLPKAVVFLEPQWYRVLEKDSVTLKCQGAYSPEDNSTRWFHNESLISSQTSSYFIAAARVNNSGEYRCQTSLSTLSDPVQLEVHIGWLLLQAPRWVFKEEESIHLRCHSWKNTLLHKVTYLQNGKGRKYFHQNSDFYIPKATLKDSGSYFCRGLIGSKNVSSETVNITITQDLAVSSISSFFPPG

T2: cynomolgus monkey FcγRIIa3 extracellular domain, C-terminal His-tag (cynomolgus monkey)
T2 construct: also called cyno FcγRIIa3; cynoFcgRIIa3
T2 chain: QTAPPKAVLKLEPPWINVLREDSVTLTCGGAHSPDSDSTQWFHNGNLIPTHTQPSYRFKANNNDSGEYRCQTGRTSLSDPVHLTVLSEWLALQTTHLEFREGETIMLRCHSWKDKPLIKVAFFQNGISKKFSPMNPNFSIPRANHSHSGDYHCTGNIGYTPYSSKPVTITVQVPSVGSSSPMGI

T3: human FcγRIIb extracellular domain, C-terminal His-tag (human, UniProt P31994 43-217)
T3 construct: also called human FcgRIIb; FcgRIIb
T3 sequence: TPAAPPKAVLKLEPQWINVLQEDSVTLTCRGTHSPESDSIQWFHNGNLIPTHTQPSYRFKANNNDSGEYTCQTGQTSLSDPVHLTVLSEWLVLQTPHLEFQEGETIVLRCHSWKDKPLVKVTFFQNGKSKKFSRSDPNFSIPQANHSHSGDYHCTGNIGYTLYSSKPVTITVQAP

T4: cynomolgus monkey FcγRIIa2 extracellular domain, C-terminal His-tag (cynomolgus monkey)
T4 construct: also called cyno FcγRIIa2; cynoFcgRIIa2
T4 chain: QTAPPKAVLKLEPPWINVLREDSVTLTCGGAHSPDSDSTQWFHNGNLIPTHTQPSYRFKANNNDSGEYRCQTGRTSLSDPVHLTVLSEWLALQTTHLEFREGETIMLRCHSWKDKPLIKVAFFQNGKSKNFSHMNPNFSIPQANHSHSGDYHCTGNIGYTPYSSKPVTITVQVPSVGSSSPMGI

T5: cynomolgus monkey FcγRIIa1 extracellular domain, C-terminal His-tag (cynomolgus monkey)
T5 construct: also called cyno FcγRIIa1; cynoFcgRIIa1
T5 chain: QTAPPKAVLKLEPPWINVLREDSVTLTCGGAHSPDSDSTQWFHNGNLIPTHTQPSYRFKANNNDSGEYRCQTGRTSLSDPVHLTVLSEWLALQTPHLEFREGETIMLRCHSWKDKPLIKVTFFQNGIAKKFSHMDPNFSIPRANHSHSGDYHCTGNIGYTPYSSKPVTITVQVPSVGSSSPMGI

T6: human FcγRIIaH extracellular domain, C-terminal His-tag (human, UniProt P12318 34-217)
T6 construct: also called human FcγRIIa (type H); FcgRIIaH
T6 sequence: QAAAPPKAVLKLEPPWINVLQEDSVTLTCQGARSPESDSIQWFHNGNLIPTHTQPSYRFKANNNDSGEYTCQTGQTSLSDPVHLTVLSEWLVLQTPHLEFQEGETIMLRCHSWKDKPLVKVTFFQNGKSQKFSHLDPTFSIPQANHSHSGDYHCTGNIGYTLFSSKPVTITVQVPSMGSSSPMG

T7: cynomolgus monkey FcγRIIb extracellular domain, C-terminal His-tag (cynomolgus monkey)
T7 construct: also called cyno FcγRIIb; cynoFcγRIIb
T7 chain: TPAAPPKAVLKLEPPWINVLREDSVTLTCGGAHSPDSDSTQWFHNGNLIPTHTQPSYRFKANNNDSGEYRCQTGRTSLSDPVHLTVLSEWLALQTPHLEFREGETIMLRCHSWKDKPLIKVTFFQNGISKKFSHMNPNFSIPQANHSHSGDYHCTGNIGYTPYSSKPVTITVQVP

T8: human FcγRIIaR extracellular domain, C-terminal His-tag (human, UniProt P12318 34-217)
T8 construct: also called human FcγRIIa (type R); FcgRIIaR
T8 chain: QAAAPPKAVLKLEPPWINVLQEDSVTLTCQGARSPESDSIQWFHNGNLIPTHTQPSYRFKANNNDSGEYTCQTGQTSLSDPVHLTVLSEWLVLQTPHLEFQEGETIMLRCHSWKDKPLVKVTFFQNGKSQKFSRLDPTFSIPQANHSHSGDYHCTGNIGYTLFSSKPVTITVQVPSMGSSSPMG


Key:
Test in all cases: SPR (Biacore), antibody captured, FcgR analyte
[1] = molecular target: T1, cynomolgus monkey FcγRIIIaS …
Method: (§1) The kinetic analysis of interactions between these antibodies and FcγR was carried out using BIACORE® T200 or BIACORE® 4000 (GE Healthcare). HBS-EP+ (GE Healthcare) was used as the running buffer, and the measurement temperature was set to 25° C. A chip produced by immobilizing Protein A. Protein A/G or mouse anti-human IgG kappa light chain (BD Biosciences) onto a Series S Sensor Chip CM4 or CM5 (GE Healthcare) by the amine-coupling method was used. […] After the measurement, the antibody captured on the chip was washed off by allowing reaction with 10 mM glycine-HCl, pH1.5 and 25 mM NaOH so that the chip was regenerated and used repeatedly. The sensorgrams obtained as measurement results were analyzed by the 1:1 Langmuir binding model using the BIACORE® Evaluation Software to calculate the binding rate constant ka (L/mol/s) and dissociation rate constant kd (l/s), and the dissociation constant KD (mol/L) was calculated from these values. […] Regarding such interactions, KD values were calculated using the following 1:1 binding model described in BIACORE® T100 Software Handbook BR1006-48 Edition AE.
(§2) The behavior of interacting molecules according to the 1:1 binding model on BIACORE® can be described by Equation 1: Req=C·R max/(KD+C)+RI, wherein, Req is a plot of steady-state binding levels to analyte concentration. C is concentration, RI is bulk refractive index contribution in the sample, and Rmax is analyte binding capacity of the surface. When this equation is rearranged, KD can be expressed as Equation 2: KD=C·Rmax/(Req−RI)−C. KD can be calculated by substituting the values of Rmax, RI, and C into Equation 1 or Equation 2. From the current measurement conditions, RI=0, C=2 μmol/L can be used.

[2] = molecular target: T9, human FcγRIIIaV extracellular domain, C-terminal His-tag (human, UniProt P08637 17-208)
T9 construct: also called human FcgRIIIaV; FcgRIIIaV
Method: as §1, §2

[3] = molecular target: T2, cynomolgus monkey FcγRIIa3 …
Method: as §1, §2

[4] = molecular target: T3, human FcγRIIb extracellular domain, …
Method: as §1, §2

[5] = molecular target: T4, cynomolgus monkey FcγRIIa2 …
Method: as §1, §2

[6] = molecular target: T5, cynomolgus monkey FcγRIIa1 …
Method: as §1, §2

[7] = molecular target: T6, human FcγRIIaH extracellular domain, …
Method: as §1, §2

[8] = molecular target: T7, cynomolgus monkey FcγRIIb extracellular …
Method: as §1, §2

[9] = molecular target: T8, human FcγRIIaR extracellular domain, …
Method: as §1, §2

T9 sequence (P08637 17-208 F176V): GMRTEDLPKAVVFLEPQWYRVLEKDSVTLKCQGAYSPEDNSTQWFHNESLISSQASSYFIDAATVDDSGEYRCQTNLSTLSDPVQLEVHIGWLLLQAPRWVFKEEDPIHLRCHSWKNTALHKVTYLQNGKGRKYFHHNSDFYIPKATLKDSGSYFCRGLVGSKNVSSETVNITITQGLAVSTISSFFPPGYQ

| Kd [1] [nM] | Kd [2] [nM] | Kd [3] [nM] | Kd [4] [nM] | Kd [5] [nM] | Kd [6] [nM] | Kd [7] [nM] | Kd [8] [nM] | Kd [9] [nM] | Binder |
| --- | --- | --- | --- | --- | --- | --- | --- | --- | --- |
| 13000 | 68000 | 11000 | 6200 | 2000 | 1500 | 1400 | 3200 | 8500 | M103205H795-MY288/M103202L889-SK1 (antibody, human IgG1, kappa, Substitutions introduced into M103205H795-SG1; expressed with M103202L889-SK1 as light chain) heavy: not shown light: DIVMTQSPATLSLSPGERATLSCTSSQSVYHANWLSWFQQKPGQPPKLLIYWASTLAYGVPSRFSGSGSGTDFTLTISSLQPEDAATYYCAGGYGGGRYAFGQGTKVEIKRTVAAPSVFIFPPSDEQLKSGTASVVCLLNNFYPREAKVQWKVDNALQSGNSQESVTEQDSKDSTYSLSSTLTLSKADYEKHKVYACEVTHQGLSSPVTKSFNRGEC |
| 6600 | 12000 | 4700 | 670 | 2200 | 2200 | 960 | 610 | 900 | M103205H795-MY330/M103202L889-SK1 (antibody, human IgG1, kappa, Substitutions introduced into M103205H795-SG1; expressed with M103202L889-SK1 as light chain) heavy: QVTLKESGPVLVKPTETLTLTCTVSGIDLSHDDISWVRQAPGKGLEWVGIISYAGSTYYASWAKGRLTISKDTSKNQVVLTMTNMDPVDTATYYCARGVPAYSHGGDLWGQGTLVTVSSASTKGPSVFPLAPSSKSTSGGTAALGCLVKDYFPEPVTVSWNSGALTSGVHTFPAVLQSSGLYSLSSVVTVPSSSLGTQTYICNVNHKPSNTKVDKKVEPKSCDKTHTCPPCPAPELWNGPSVFLFPPKPKDTLMISRTPEVTCVVVDVSEEDPEVKFNWYVDGVEVHNAKTKPREEQYNSTYRVVSVLTVLHQDWLNGKEYKCKVSNKALPKPIEKTISKAKGQPREPQVYTLPPSREEMTKNQVSLTCLVKGFYPSDIAVEWESNGQPENNYKTTPMVLDSDGSFFLYSKLTVDKSRWQQGNVFSCSVMHEALHNHYTQKSLSLSP light: DIVMTQSPATLSLSPGERATLSCTSSQSVYHANWLSWFQQKPGQPPKLLIYWASTLAYGVPSRFSGSGSGTDFTLTISSLQPEDAATYYCAGGYGGGRYAFGQGTKVEIKRTVAAPSVFIFPPSDEQLKSGTASVVCLLNNFYPREAKVQWKVDNALQSGNSQESVTEQDSKDSTYSLSSTLTLSKADYEKHKVYACEVTHQGLSSPVTKSFNRGEC |
| 5200 | 7700 | 86000 | 2900 | 1500 | 1300 | 830 | 740 | 5500 | M103205H795-MY289/M103202L889-SK1 (antibody, human IgG1, kappa, Substitutions introduced into M103205H795-SG1; expressed with M103202L889-SK1 as light chain) heavy: QVTLKESGPVLVKPTETLTLTCTVSGIDLSHDDISWVRQAPGKGLEWVGIISYAGSTYYASWAKGRLTISKDTSKNQVVLTMTNMDPVDTATYYCARGVPAYSHGGDLWGQGTLVTVSSASTKGPSVFPLAPSSKSTSGGTAALGCLVKDYFPEPVTVSWNSGALTSGVHTFPAVLQSSGLYSLSSVVTVPSSSLGTQTYICNVNHKPSNTKVDKKVEPKSCDKTHTCPPCPAPELLNGPSVFLFPPKPKDTLMISRTPEVTCVVVDVSHEDPEVKFNWYVDGVEVHNAKTKPREEQYNSTYRVVSVLTVLHQDWLNGKEYKCKVSNKALPKPIEKTISKAKGQPREPQVYTLPPSREEMTKNQVSLTCLVKGFYPSDIAVEWESNGQPENNYKTTPMVLDSDGSFFLYSKLTVDKSRWQQGNVFSCSVMHEALHNHYTQKSLSLSP light: DIVMTQSPATLSLSPGERATLSCTSSQSVYHANWLSWFQQKPGQPPKLLIYWASTLAYGVPSRFSGSGSGTDFTLTISSLQPEDAATYYCAGGYGGGRYAFGQGTKVEIKRTVAAPSVFIFPPSDEQLKSGTASVVCLLNNFYPREAKVQWKVDNALQSGNSQESVTEQDSKDSTYSLSSTLTLSKADYEKHKVYACEVTHQGLSSPVTKSFNRGEC |
| 11000 | 16000 | 64000 | 1400 | 2400 | 2900 | 16000 | 740 | 1900 | M103205H795-MY434/M103202L889-SK1 (antibody, human IgG1, kappa, Substitutions introduced into M103205H795-SG1; expressed with M103202L889-SK1 as light chain) heavy: QVTLKESGPVLVKPTETLTLTCTVSGIDLSHDDISWVRQAPGKGLEWVGIISYAGSTYYASWAKGRLTISKDTSKNQVVLTMTNMDPVDTATYYCARGVPAYSHGGDLWGQGTLVTVSSASTKGPSVFPLAPSSKSTSGGTAALGCLVKDYFPEPVTVSWNSGALTSGVHTFPAVLQSSGLYSLSSVVTVPSSSLGTQTYICNVNHKPSNTKVDKKVEPKSCDKTHTCPPCPAPELWNGPSVFLFPPKPKDTLMISRTPEVTCVVVDVSDEDPEVKFNWYVDGVEVHNAKTKPREEQYNSTYRVVSVLTVLHQDWLNGKEYKCKVSNKALPKPIEKTISKAKGQPREPQVYTLPPSREEMTKNQVSLTCLVKGFYPSDIAVEWESNGQPENNYKTTPPVLDSDGSFFLYSKLTVDKSRWQQGNVFSCSVMHEALHNHYTQKSLSLSP light: DIVMTQSPATLSLSPGERATLSCTSSQSVYHANWLSWFQQKPGQPPKLLIYWASTLAYGVPSRFSGSGSGTDFTLTISSLQPEDAATYYCAGGYGGGRYAFGQGTKVEIKRTVAAPSVFIFPPSDEQLKSGTASVVCLLNNFYPREAKVQWKVDNALQSGNSQESVTEQDSKDSTYSLSSTLTLSKADYEKHKVYACEVTHQGLSSPVTKSFNRGEC |
